Results: article PMC6368300
pKd: −log10 of the molar value.

Molecular target: Pyruvate Kinase M2 (human) (UniProt P14618)
Test: SPR; Autolab SPR; PKM2 immobilised by NHS/EDC coupling; Histone H3 100 nM-1000 nM as analyte; 10 mM HEPES pH 7.4, 150 mM NaCl, 3 mM EDTA, 0.05% NP-40; 25°C; 1:1 Langmuir model, KD from the equilibrium equation; triplicate

Sequence of UniProt P14618 (P14618 whole entry): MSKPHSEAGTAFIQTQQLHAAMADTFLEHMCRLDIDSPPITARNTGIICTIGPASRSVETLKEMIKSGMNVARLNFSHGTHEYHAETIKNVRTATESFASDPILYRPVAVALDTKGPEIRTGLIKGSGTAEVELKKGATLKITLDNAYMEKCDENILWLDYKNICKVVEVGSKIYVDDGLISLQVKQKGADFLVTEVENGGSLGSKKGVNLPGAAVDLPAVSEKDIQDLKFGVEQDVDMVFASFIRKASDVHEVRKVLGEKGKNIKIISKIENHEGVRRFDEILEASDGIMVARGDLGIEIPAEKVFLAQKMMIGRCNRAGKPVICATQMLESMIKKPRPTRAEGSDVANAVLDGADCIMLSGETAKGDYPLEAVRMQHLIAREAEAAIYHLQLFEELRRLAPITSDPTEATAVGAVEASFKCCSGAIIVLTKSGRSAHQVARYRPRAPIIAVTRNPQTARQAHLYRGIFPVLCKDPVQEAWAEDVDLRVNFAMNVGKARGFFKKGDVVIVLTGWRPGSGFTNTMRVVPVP

## Histone H3 (from UniProt P84233 1-136) (natural protein; other documents disagree on this pair)
  pKd: 5.19
